In assay [1] the target is CD74 on human cells (human) (UniProt P04233). Description: indirect FACS, Ramos cells, FITC-GAH Fc 2nd Ab; none 3.1.
Assay [2] has the same target. The assay is described as follows: indirect flow cytometry, Ramos cells, FITC-GAH Fc 2nd Ab; none 3.1.
Assay [3] has as its target CD74 on dog lymphocytes and dog lymphoma cells (dog). The assay is described as follows: flow cytometry, dog lymphoma aspirate; none 3.24. (In flow cytometry, cells or beads pass a laser one at a time.)
The target is the same in assay [4]. The assay is described as follows: flow cytometry, canine lymphoma aspirate 150836; none 4.5.
For assay [5] the target is unchanged. The assay is described as follows: flow cytometry, canine lymphoma aspirate 150836; none 3.2.
Assay [6] has as its target CD74 on human cells (human) (UniProt P04233). Description: indirect flow cytometry, Daudi cells, FITC-GAH Fc 2nd Ab; none 3.2.
For assay [7] the target is unchanged. Description: indirect FACS, Daudi cells, FITC-GAH Fc 2nd Ab; none 3.1.
Assay [8] has the same target. Description: indirect FACS, Raji cells, FITC-GAH Fc 2nd Ab; none 6.8.
For assay [9] the target is unchanged. The assay is described as follows: indirect flow cytometry, WSU-FSCCL cells, FITC-GAH Fc 2nd Ab; none 2.7.
For assay [10], the target named is CD74 on dog lymphocytes and dog lymphoma cells (dog). The assay is described as follows: flow cytometry, dog lymphoma aspirate; none 4.48.
Assay [11] deals with CD74 on human cells (human) (UniProt P04233). Description: indirect flow cytometry, Namalwa cells, FITC-GAH 2nd Ab; none 2.52.
For assay [12] the target is unchanged. The assay is described as follows: indirect FACS, Namalwa cells, FITC-GAH Fc 2nd Ab; none 2.5.
Assay [13] has the same target. The assay is described as follows: indirect flow cytometry, RL cells, FITC-GAH Fc 2nd Ab; none 2.4.
Assay [14] shares this target. Description: indirect FACS, WSU-FSCCL cells, FITC-GAH Fc 2nd Ab; none 2.6.
For assay [15] the target is unchanged. Description: indirect flow cytometry, Namalwa cells, FITC-GAH Fc 2nd Ab; none 2.6.
Assay [16] shares this target. The assay is described as follows: indirect flow cytometry, Raji cells, FITC-GAH Fc 2nd Ab; none 6.9.
The target is the same in assay [17]. Description: indirect FACS, SU-DHL-6 cells, FITC-GAH Fc 2nd Ab; none 4.6.
For assay [18] the target is unchanged. The assay is described as follows: indirect flow cytometry, SU-DHL-6 cells, FITC-GAH Fc 2nd Ab; none 4.6.

CD74 on human cells (human), sequence (P04233 whole entry): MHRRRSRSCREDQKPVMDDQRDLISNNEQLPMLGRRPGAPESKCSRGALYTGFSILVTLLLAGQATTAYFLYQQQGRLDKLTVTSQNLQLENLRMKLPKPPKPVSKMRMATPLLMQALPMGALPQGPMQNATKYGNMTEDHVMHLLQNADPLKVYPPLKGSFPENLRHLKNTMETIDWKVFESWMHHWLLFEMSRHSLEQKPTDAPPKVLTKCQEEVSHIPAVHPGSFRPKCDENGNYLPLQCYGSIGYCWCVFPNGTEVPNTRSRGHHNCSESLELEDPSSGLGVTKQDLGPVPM

With “hLL1 (milatuzumab, humanized anti-CD74) (antibody)”, the geometric mean fluorescence stood at 23.2 in [1]; 23.3 in [2]; 48.8 in assay [6]; 48.8 in assay [7]; 95.1 in [8]; 8.7 in [9]. The geometric mean fluorescence in [11] turned out to be 10.1; in assay [12], 7.81; in assay [13], 7.9; in [14], 8.66; in assay [15], 7.8; in [16], 95.1. Also, the geometric mean fluorescence in assay [17] and in [18] was 17.3 throughout. For the same substance, the values for the mean FL in assay [3] and in assay [5] were 3.33 and 3.3, respectively. In addition, the % Positive in assay [4] came out at 4.7%; in [10], 4.71%.

The values above are taken from patent US20160355591A1.
